The record followed here is US6942981.

T1: GST-NeDLG PDZ domains 1-2 fusion protein (Mus musculus (Mouse), UniProt P70175 147-332)
T1 construct: also called NeDLG1; not shown: glutathione S-transferase (GST) encoded by pGEX-3X
T1 chain: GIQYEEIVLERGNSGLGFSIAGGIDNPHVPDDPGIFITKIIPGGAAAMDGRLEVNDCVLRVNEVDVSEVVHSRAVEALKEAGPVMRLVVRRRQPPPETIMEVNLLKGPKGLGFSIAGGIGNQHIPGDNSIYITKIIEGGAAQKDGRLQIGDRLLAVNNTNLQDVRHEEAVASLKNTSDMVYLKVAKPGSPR

T2: GST-DVL1 PDZ domain fusion protein (human)
T2 construct: also called human dishevelled segment polarity protein homolog; not shown: glutathione S-transferase (GST) encoded by pGEX-3X
T2 chain: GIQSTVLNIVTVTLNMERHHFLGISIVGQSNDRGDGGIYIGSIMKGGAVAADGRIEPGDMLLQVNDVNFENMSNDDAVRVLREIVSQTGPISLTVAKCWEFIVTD

T3: GST-MPP1 PDZ domain fusion protein (Homo sapiens (Human), UniProt Q00013 67-152)
T3 construct: also called 55 Kd erythrocyte membrane protein; not shown: glutathione S-transferase (GST) encoded by pGEX-3X
T3 sequence: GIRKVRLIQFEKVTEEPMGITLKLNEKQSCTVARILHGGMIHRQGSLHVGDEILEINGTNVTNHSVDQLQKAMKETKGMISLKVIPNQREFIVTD

T4: GST-MPP2 PDZ domain fusion protein
T4 construct: also called maguk p55 subfamily member 2 (DLG2); MMP2; not shown: glutathione S-transferase (GST) encoded by pGEX-3X
T4 chain: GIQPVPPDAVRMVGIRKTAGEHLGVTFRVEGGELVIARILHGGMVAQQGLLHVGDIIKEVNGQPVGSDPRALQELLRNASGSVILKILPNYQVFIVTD

T5: GST-MINT3 PDZ domain fusion protein (human)
T5 construct: also called human MINT3; not shown: glutathione S-transferase (GST) encoded by pGEX-3X
T5 chain: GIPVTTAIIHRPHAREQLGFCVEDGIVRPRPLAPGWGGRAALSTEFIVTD

T6: GST-TAX33 PDZ domain fusion protein (Homo sapiens (Human), UniProt O14910 103-194)
T6 construct: not shown: glutathione S-transferase (GST) encoded by pGEX-3X
T6 sequence: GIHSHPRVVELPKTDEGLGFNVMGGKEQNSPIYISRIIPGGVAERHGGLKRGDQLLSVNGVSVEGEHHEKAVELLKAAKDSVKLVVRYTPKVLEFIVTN

T7: GST-LIMK2 PDZ domain fusion protein (human, UniProt P53671 147-237)
T7 construct: also called human LIM domain kinase 2; not shown: glutathione S-transferase (GST) encoded by pGEX-3X
T7 sequence: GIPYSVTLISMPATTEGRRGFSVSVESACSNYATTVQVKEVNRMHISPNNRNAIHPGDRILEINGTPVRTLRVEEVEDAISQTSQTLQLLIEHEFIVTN

T8: GST-TAX2 PDZ domain fusion protein (human, UniProt O14908 129-216)
T8 construct: not shown: glutathione S-transferase (GST) encoded by pGEX-3X
T8 chain: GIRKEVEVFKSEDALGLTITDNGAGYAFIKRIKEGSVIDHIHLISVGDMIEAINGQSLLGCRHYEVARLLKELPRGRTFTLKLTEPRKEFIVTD

T9: GST-SYN1a (alpha1-syntrophin) PDZ domain fusion protein (Homo sapiens (Human), UniProt Q13424 84-179)
T9 construct: also called SYN 1 α; not shown: glutathione S-transferase (GST) encoded by pGEX-3X
T9 sequence: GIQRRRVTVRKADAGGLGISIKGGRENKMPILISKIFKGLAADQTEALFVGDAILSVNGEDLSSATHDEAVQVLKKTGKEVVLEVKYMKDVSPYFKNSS

B1: DNAM-1 C-terminal peptide AA22L (peptide)
peptide: Biotin-TREDIYVNYPTFSRRPKTRV
B2: CDW128A (IL8RA) C-terminal peptide AA29.1L (peptide)
peptide: Biotin-ARHRVTSYTSSSVNVSSNL
B3: CD83 C-terminal peptide AA47L (peptide)
peptide: Biotin-VTSPNKHLGLVTPHKTELV
B4: VCAM1 C-terminal peptide AA17L (peptide)
peptide: Biotin-ARKANMKGSYSLVEAQKSKV
B5: KV1.3 C-terminal peptide AA33L (peptide)
peptide: Biotin-TTNNNPNSAVNIKKIFTDV
B6: CLASP-1 C-terminal peptide AA1L (peptide)
peptide: Biotin-ISKATPALPTVSISSSAEV
B7: CD95 (Apo-1/Fas) C-terminal peptide AA13L (peptide)
peptide: Biotin-KDITSDSENSNFRNEIQSLV
B8: CDW128B (IL8RB) C-terminal peptide AA29.2L (peptide)
peptide: Biotin-KDSRPSFVGSSSGHTSTTL
B9: LPAP C-terminal peptide AA30L (peptide)
peptide: Biotin-AWDDSARAAGGQGLHVTAL
B10: CD148 (DEP-1) C-terminal peptide AA19L (ending GYIA) (peptide)
peptide: Biotin-ENLAPVTTFGKTNGYIA
B11: CD46 (form 1) C-terminal peptide AA10L (peptide)
peptide: Biotin-KKGTYLTDETHREVKFTSL
B12: CD98 (2F4) C-terminal peptide AA15L (peptide)
peptide: Biotin-ERLKLEPHEGLLLRFPYAA

Ends that are not written are not given here. * marks the point of attachment. Biotin = O=C1N[C@H]2[C@H](CS[C@H]2CCCCC(=O)*)N1

T12 sequence (P29475 other isoform, or with tags, fused parts or gaps): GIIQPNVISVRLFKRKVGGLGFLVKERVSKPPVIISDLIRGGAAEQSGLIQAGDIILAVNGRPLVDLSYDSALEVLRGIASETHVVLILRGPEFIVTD

One experiment concerns the target T1, GST-NeDLG PDZ domains 1-2 fusion protein. The experiment in a line: A assay.
For B1, the binding result is on record as “binds”.
Turning to B2, the binding result is “binds”.
B3: the binding result is on record as “binds”.
B4: the binding result is “binds”.

A further experiment concerns the target T2, GST-DVL1 PDZ domain fusion protein. The experiment in a line: A assay.
For the molecule B5, the binding result is on record as “binds”.

In a further experiment the target is T3, GST-MPP1 PDZ domain fusion protein. Put plainly: A assay.
Regarding B1, the binding result is on record as “binds”.
Consider B4, for which the binding result is listed as “binds”.

The target in a further experiment is T10, GST-PSD95 PDZ domains 1-3 fusion protein (human, UniProt P31016 58-395 (rat entry)).
T10 construct: not shown: glutathione S-transferase (GST) encoded by pGEX-3X
T10 sequence (P31016 other isoform, or with tags, fused parts or gaps): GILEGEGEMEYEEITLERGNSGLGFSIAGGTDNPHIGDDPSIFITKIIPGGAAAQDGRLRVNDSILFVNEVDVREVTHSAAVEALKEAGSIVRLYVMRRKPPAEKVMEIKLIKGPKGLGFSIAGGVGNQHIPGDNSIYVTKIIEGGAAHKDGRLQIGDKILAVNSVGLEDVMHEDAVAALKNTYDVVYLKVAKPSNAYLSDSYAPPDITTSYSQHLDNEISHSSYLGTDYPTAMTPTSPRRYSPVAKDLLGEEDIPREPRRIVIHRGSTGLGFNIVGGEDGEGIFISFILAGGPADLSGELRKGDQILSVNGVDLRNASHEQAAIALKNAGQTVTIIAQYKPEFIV
Put plainly: A assay.
Regarding B6, the binding result is “binds”.

A further experiment addresses T1, GST-NeDLG PDZ domains 1-2 fusion protein. The experiment in a line: G assay titration of biotinylated peptide on immobilized GST-PDZ, saturation fit (apparent affinity). From the text:
FIGS. 2A and 2B show the Apparent Affinity Determination for PDZ-Ligand Interactions. […] The binding to GST alone (<0.2 OD units) was subtracted from the binding to the fusion proteins to obtain the signal at each peptide concentration.
On to B7, for which the Kd was 54 µM.

For the next experiment the target is unchanged. The experiment in a line: A and G assays.
Turning to B8, the binding result is on record as “binds”.
As to B5, the binding result is on record as “binds”.

The next experiment concerns the target T4, GST-MPP2 PDZ domain fusion protein. The experiment in a line: A/G assays.
Take B9: the binding result was “no binding”.
For B6, the binding result is “no binding”.
With B10, the binding result was “no binding”.
For B2, the binding result was “no binding”.
Regarding B7, the binding result is given as “no binding”.
With B8, the binding result was “no binding”.
Turning to B5, the binding result is on record as “no binding”.
For B11, the binding result is listed as “no binding”.
Turning to B3, the binding result was “no binding”.
With B4, the binding result is “no binding”.

Another experiment concerns the target T1, GST-NeDLG PDZ domains 1-2 fusion protein. Put plainly: A/G assays.
Turning to B9, the binding result is recorded as “no binding”.
On the same count and under the same terms, the value for B10 was “no binding”.
Still for that read-out and setting: the value for B12 was “no binding”.

Another experiment has as its target T2, GST-DVL1 PDZ domain fusion protein. Put plainly: A/G assays.
With B1, the binding result was “no binding”.
With B9, the binding result was “no binding”.
For B6, the binding result is on record as “no binding”.
In the case of B10, the binding result is listed as “no binding”.
On the same count and under the same terms, the value for B2 was “no binding”; that for B7 was “no binding”.
Regarding B8, the binding result is “no binding”.
As for B11, the binding result is “no binding”.
As for B12, the binding result is on record as “no binding”.
Same read-out and setting: the value for B3 was “no binding”; that for B4 was “no binding”.

A further experiment deals with T5, GST-MINT3 PDZ domain fusion protein. The experiment in a line: A/G assays.
Turning to B1, the binding result is “no binding”.
In the case of B9, the binding result is given as “no binding”.
As to B6, the binding result is on record as “no binding”.
Consider B10, for which the binding result is listed as “no binding”.
B2: the binding result was “no binding”.
Regarding B7, the binding result is listed as “no binding”.
Same read-out and setting: the value for B8 was “no binding”; that for B5 was “no binding”; that for B11 was “no binding”.
The same measure, in the same setting: the value for B12 was “no binding”; that for B3 was “no binding”; that for B4 was “no binding”.

The target in a further experiment is T11, GST-KIAA0316 PDZ domain fusion protein (Homo sapiens (Human), UniProt Q14CM0 72-159).
T11 construct: also called K316; not shown: glutathione S-transferase (GST) encoded by pGEX-3X
T11 sequence (Q14CM0 other isoform, or with tags, fused parts or gaps): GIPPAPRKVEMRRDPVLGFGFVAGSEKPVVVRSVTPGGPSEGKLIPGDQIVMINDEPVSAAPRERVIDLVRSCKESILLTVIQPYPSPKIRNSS
Put plainly: A/G assays.
B9: the binding result was “no binding”.
Turning to B12, the binding result is on record as “no binding”.

A further experiment deals with T6, GST-TAX33 PDZ domain fusion protein. The experiment in a line: A/G assays.
On to B12, for which the binding result is “no binding”.

The next experiment addresses T12, GST-NOS1 PDZ domain fusion protein (human, UniProt P29475 11-101).
T12 construct: also called human neuronal nitric oxide synthase; not shown: glutathione S-transferase (GST) encoded by pGEX-3X
The experiment in a line: A/G assays.
As for B1, the binding result is on record as “no binding”.
In the case of B9, the binding result is on record as “no binding”.
For the molecule B12, the binding result is reported as “no binding”.

For another experiment, the target named is T7, GST-LIMK2 PDZ domain fusion protein. The experiment in a line: A/G assays.
For the molecule B1, the binding result is “no binding”.
As for B9, the binding result is listed as “no binding”.
On the same count and under the same terms, the value for B6 was “no binding”; that for B10 was “no binding”.
For the molecule B2, the binding result is “no binding”.
Regarding B7, the binding result is listed as “no binding”.
Consider B8, for which the binding result was “no binding”.
The same measure, in the same setting: the value for B5 was “no binding”; that for B11 was “no binding”; that for B12 was “no binding”.
On the same count and under the same terms, the value for B3 was “no binding”.
Take B4: the binding result is reported as “no binding”.

Another experiment concerns the target T8, GST-TAX2 PDZ domain fusion protein. The experiment in a line: A/G assays.
Consider B1, for which the binding result is on record as “no binding”.
With B9, the binding result is “no binding”.
Same read-out and setting: the value for B6 was “no binding”; that for B10 was “no binding”; that for B2 was “no binding”.
On to B7, for which the binding result is given as “no binding”.
On the same count and under the same terms, the value for B8 was “no binding”; that for B5 was “no binding”.
With B11, the binding result was “no binding”.
Same read-out and setting: the value for B12 was “no binding”; that for B3 was “no binding”.
Regarding B4, the binding result was “no binding”.

The target in the next experiment is T9, GST-SYN1a (alpha1-syntrophin) PDZ …. The experiment in a line: A/G assays.
For B1, the binding result is given as “no binding”.
For B9, the binding result was “no binding”.
On to B6, for which the binding result is “no binding”.
For the molecule B10, the binding result is recorded as “no binding”.
Take B2: the binding result is recorded as “no binding”.
In the case of B7, the binding result is listed as “no binding”.
For the molecule B8, the binding result is “no binding”.
As for B5, the binding result was “no binding”.
As for B11, the binding result is recorded as “no binding”.
Turning to B12, the binding result was “no binding”.
Regarding B3, the binding result is given as “no binding”.
Turning to B4, the binding result is “no binding”.

For a further experiment, the target named is T4, GST-MPP2 PDZ domain fusion protein. The experiment in a line: G assay.
As to B1, the binding result is listed as “binds”.
Still for that read-out and setting: the value for B12 was “binds”.

The next experiment concerns the target T1, GST-NeDLG PDZ domains 1-2 fusion protein. The experiment in a line: G assay.
Consider B6, for which the binding result is listed as “binds”.
The same measure, in the same setting: the value for B11 was “binds”.
